According to paper PMC2910870 (Neuron, 2010):

B1: β-NRX1+4 (mouse β-neurexin 1 LNS domain, with splice insert 4) (domain or fragment)
chain: not shown
modifications: N-glycosylation at Asn184
B2: β-NRX2+4 (rat β-neurexin 2 LNS domain, with splice insert 4) (domain or fragment)
chain: not shown
modifications: N-glycosylation at Asn186

Assays:
Experiment in all cases: SPR
[1] = target: NL1AB (rat neuroligin 1 cholinesterase-like region, with inserts A and B) (rat, UniProt Q62765 48-638)
[2] = target: NL2A (rat neuroligin 2 cholinesterase-like region, with insert A) (rat, UniProt Q62888 46-612)
NL2A (rat neuroligin 2 cholinesterase-like region, with insert A), sequence (Q62888 46-612): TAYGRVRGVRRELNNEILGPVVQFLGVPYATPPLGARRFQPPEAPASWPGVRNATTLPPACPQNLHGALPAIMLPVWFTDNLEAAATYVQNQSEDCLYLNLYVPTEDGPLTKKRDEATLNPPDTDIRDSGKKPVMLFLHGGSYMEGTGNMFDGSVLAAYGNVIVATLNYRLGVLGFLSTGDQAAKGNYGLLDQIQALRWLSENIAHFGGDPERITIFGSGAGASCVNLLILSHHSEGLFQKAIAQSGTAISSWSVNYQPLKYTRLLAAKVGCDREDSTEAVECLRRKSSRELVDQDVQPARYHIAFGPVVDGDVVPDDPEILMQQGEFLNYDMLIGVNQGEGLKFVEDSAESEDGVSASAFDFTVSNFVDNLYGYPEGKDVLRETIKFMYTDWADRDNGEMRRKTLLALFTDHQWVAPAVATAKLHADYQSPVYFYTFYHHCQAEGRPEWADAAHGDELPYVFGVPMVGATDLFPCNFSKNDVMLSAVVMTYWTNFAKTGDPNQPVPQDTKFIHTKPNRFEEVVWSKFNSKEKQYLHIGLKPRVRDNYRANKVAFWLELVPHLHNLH

[3] = target: NL3A1A2 (rat neuroligin 3 cholinesterase-like region, with inserts A1 and A2) (rat, UniProt Q62889 42-633)
NL3A1A2 (rat neuroligin 3 cholinesterase-like region, with inserts A1 and A2), sequence (Q62889 42-633): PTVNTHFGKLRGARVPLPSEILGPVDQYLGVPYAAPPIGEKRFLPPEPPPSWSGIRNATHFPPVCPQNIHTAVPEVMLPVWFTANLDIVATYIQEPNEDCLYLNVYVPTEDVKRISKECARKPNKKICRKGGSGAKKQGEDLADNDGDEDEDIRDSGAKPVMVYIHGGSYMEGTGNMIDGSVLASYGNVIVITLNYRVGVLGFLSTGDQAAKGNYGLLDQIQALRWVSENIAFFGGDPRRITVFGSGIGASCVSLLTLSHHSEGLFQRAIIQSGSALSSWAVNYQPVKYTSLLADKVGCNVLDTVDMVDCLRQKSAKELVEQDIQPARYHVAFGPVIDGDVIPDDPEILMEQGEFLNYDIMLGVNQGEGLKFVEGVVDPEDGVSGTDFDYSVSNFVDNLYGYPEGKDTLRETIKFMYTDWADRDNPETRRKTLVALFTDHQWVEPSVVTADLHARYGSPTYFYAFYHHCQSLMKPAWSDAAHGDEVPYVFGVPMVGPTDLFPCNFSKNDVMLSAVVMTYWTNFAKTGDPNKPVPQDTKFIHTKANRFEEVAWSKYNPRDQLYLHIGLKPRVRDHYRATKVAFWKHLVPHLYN

NL1AB (rat neuroligin 1 cholinesterase-like region, with inserts A and B), sequence (Q62765 48-638): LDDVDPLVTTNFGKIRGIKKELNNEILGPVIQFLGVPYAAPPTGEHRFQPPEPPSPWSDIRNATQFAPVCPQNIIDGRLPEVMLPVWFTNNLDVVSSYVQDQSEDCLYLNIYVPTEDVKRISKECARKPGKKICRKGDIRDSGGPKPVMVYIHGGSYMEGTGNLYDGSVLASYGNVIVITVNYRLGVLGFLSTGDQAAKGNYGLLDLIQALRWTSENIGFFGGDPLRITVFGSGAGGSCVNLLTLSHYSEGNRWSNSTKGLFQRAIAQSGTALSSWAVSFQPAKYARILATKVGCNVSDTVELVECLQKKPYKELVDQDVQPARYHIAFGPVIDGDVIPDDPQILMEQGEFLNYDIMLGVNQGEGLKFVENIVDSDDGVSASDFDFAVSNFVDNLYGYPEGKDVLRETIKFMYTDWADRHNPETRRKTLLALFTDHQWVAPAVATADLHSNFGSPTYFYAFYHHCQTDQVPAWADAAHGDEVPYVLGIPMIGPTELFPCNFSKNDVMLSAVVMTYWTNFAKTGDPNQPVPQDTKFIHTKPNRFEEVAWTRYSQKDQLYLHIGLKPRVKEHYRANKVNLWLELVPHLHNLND

Binder	Kd [1]	Kd [2]	Kd [3]
B1	2.82 µM	3.17 µM	21 µM
B2	5.66 µM	3.01 µM	48 µM
